Results as given in patent US20220177587A1, “METHODS AND USES OF VARIANT CD80 FUSION PROTEINS AND RELATED CONSTRUCTS” (Alpine Immune Sciences, Inc., priority 2018, published 2022).

Assays:
CD28 [1] = target: T1, CD28 (Homo sapiens, UniProt P10747); assay: Jurkat/IL2 + CHO/OKT3 +/- PD-L1 reporter assay: PD-L1-dependent CD28 costimulation; type: cell-based; design: host or cells: Jurkat cells expressing an IL-2-luciferase reporter; conditions: luciferase signal
Experimental: Jurkat cells were then plated at 50 μL/well for a total of 100,000 cells per well.
To each well, 25 μL of test protein was added to the Jurkat cells. […] The Jurkat cells with test or control proteins were incubated for 15 minutes at room temperature. CHO-derived artificial antigen presenting cells (aAPC) displaying transduced cell surface anti-CD3 single chain Fv (OKT3) (i.e., no PD-L1), or OKT3 and PD-L1 (i.e., +PD-L1), were brought to 0.8×10^6 cells/mL, and 25 μL of cells were added to each well, bringing the final volume of each well to 100 μL. […] Jurkat cells and CHO cells were incubated for 5 hours at 37 degrees Celsius in a humidified 5% CO2 incubation chamber. Plates were then removed from the incubator and acclimated to room temperature for 15 minutes. 100 μL of a cell lysis and luciferase substrate solution (BioGlo luciferase reagent, Promega) were added to each well and the plates were incubated on an orbital shaker for 10 minutes. Luminescence was measured with a 1 second per well integration time using a BioTek Cytation luminometer, and a relative luminescence value (RLU) was determined for each test sample.

CD28 [2] = target: T1, CD28; assay: CD28 costimulation via Fc receptor or PD-L1 dependent cross-linking (Jurkat/IL2 + K562/OKT3 +/- PD-L1); type: cell-based; design: host or cells: Jurkat cells expressing an IL-2-luciferase reporter; conditions: luciferase signal
Experimental: In a further experiment, CD28 costimulation was assessed for variant CD80-IgV-Fc fusion proteins, where the Fc was an IgG1 Fc (e.g. SEQ ID NO:1517) capable of mediating effector activity via binding to Fc receptors (FcR). The experiment was carried out as described in part A above, except CD32-expressing K562 cells stably transduced with OKT3 (K562/OKT3) or OKT3 and PD-L1 (K562/OKT3/PD-L1) were used instead of the CHO/OKT3 and CHO/OKT3/PD-L1 cells, and the results are depicted in Table E9.

huCTLA4 = huCTLA4 (Homo sapiens, UniProt P16410); assay: Flow binding to HEK293 cells transfected with CTLA4; design: Full-length mammalian surface expression constructs for each of human CTLA-4, PD-L1, and CD28; host or cells: HEK293 cells, Expi293F transient transfection system; conditions: Table E1
Experimental: Full-length mammalian surface expression constructs for each of human CTLA-4, PD-L1, and CD28, were designed in pcDNA3.1 expression vector (Life Technologies) and sourced from Genscript, USA. Binding studies were carried out on transfected HEK293 cells generated to express the full-length mammalian surface ligands using the using the Expi293F transient transfection system (Life Technologies, USA). As a control, binding to mock (non-transfected) cells also was assessed. […] For each CTLA-4, PD-L1, CD-28 or mock 30 mL transfection, 75 million Expi293F cells were incubated with 30 μg expression construct DNA and 1.5 mL diluted ExpiFectamine 293 reagent for 48 hours, at which point cells were harvested for staining.
For staining and analysis by flow cytometry, 100,000 cells of appropriate transient transfection or negative control (mock) were plated in 96-well round bottom plates. Cells were spun down and resuspended in staining buffer (PBS (phosphate buffered saline), 1% BSA (bovine serum albumin), and 0.1% sodium azide) for 20 minutes to block non-specific binding. […] Secondary antibody was washed out twice, cells were fixed in 4% formaldehyde/PBS, and samples were analyzed on Intellicyt flow cytometer (Intellicyt Corp, USA). Mean Fluorescence Intensity (MFI) was calculated for each transfectant and mock transfected HEK293 with FlowJo Version 10 software (FlowJo LLC, USA).

CD28 [3] = target: T1, CD28; assay: Flow binding to HEK293 cells transfected with CD28; design: Full-length mammalian surface expression constructs for each of human CTLA-4, PD-L1, and CD28; host or cells: HEK293 cells, Expi293F transient transfection system; conditions: Table E1
Experimental: This Example describes Fc-fusion binding studies of purified proteins from the above Examples to cell-expressed CTLA-4, PD-L1, and CD28 counter structures to assess the specificity and affinity of CD80 domain variant immunomodulatory proteins. Full-length mammalian surface expression constructs for each of human CTLA-4, PD-L1, and CD28, were designed in pcDNA3.1 expression vector (Life Technologies) and sourced from Genscript, USA. Binding studies were carried out on transfected HEK293 cells generated to express the full-length mammalian surface ligands using the using the Expi293F transient transfection system (Life Technologies, USA). As a control, binding to mock (non-transfected) cells also was assessed. […]
For staining and analysis by flow cytometry, 100,000 cells of appropriate transient transfection or negative control (mock) were plated in 96-well round bottom plates. […] As controls, the binding activities of wild-type CD80-ECD-Fc (R&D Systems), wild-type CD80-ECD-Fc (inert), wild-type IgV-Fc (inert) and/or human IgG (Sigma) were also assessed. […] Secondary antibody was washed out twice, cells were fixed in 4% formaldehyde/PBS, and samples were analyzed on Intellicyt flow cytometer (Intellicyt Corp, USA). Mean Fluorescence Intensity (MFI) was calculated for each transfectant and mock transfected HEK293 with FlowJo Version 10 software (FlowJo LLC, USA). […]

allogeneic CD4+ T cells = assay: Mixed Lymphocyte Reaction (MLR), IFN-gamma; type: cell-based, human; conditions: Table E32; variant ECD-Fc in MLR assay; culture supernatant
Experimental: Soluble rCD80.Fc bioactivity was tested in a human Mixed Lymphocyte Reaction (MLR). Human primary dendritic cells (DC) were generated by culturing monocytes isolated from PBMC (BenTech Bio, USA) in vitro for 7 days with 500U/ml rIL-4 (R&D Systems, USA) and 250 U/ml rGM-CSF (R&D Systems, USA) in Ex-Vivo 15 media (Lonza, Switzerland). 10,000 matured DC and 100,000 purified allogeneic CD4+ T cells (BenTech Bio, USA) were co-cultured with variant CD80 Fc fusion proteins and controls in 96 well round bottom plates in 200 μl final volume of Ex-Vivo 15 media. On day 5, IFN-gamma secretion in culture supernatants was analyzed using the Human IFN-gamma Duoset ELISA kit (R&D Systems, USA). Optical density was measured by VMax ELISA Microplate Reader (Molecular Devices, USA) and quantitated against titrated rIFN-gamma standard included in the IFN-gamma Duo-set kit (R&D Systems, USA).

human pan T cells = assay: Anti-CD3 coimmobilization assay, IFN-gamma; type: cell-based; conditions: Table E32; variant ECD-Fc coimmobilized with anti-CD3; culture supernatant
Experimental: Costimulatory bioactivity of CD80 fusion variants was determined in anti-CD3 coimmobilization assays. 1 nM or 4 nM mouse anti-human CD3 (OKT3, Biolegends, USA) was diluted in PBS with 1 nM to 80 nM rCD80.Fc variant proteins. This mixture was added to tissue culture treated flat bottom 96-well plates (Corning, USA) overnight to facilitate adherence of the stimulatory proteins to the wells of the plate. The next day, unbound protein was washed off the plates and 100,000 purified human pan T cells (BenTech Bio, US) or human T cell clone BC3 (Astarte Biologics, USA) were added to each well in a final volume of 200 μl of Ex-Vivo 15 media (Lonza, Switzerland). Cells were cultured 3 days before harvesting culture supernatants and measuring human IFN-gamma levels with Duoset ELISA kit (R&D Systems, USA) as described above.

huPD-L1 = huPD-L1 (Homo sapiens, UniProt Q9NZQ7); assay: Flow binding to Expi293F cells transfected with PD-L1 (ECD variants); design: Full-length mammalian surface expression constructs for each of human CTLA-4, PD-L1, and CD28; host or cells: HEK293 cells, Expi293F transient transfection system; conditions: Table E32; variant CD80 ECD-Fc selected against CD28
Experimental: To produce cells expressing cognate binding partners, full-length mammalian surface expression constructs for each of human CD28, CTLA-4 and PD-L1, were designed in pcDNA3.1 expression vector (Life Technologies) and sourced from Genscript, USA. Binding studies were carried out using the Expi293F transient transfection system (Life Technologies, USA). […] For each CD28, CTLA-4, PD-L1, or mock 30 ml transfection, 75 million Expi293F cells were incubated with 30 μg expression construct DNA and 1.5 ml diluted ExpiFectamine 293 reagent for 48 hours, at which point cells were harvested for staining.
For staining by flow cytometry, 200,000 cells of appropriate transient transfection or negative control were plated in 96-well round bottom plates. Cells were spun down and resuspended in staining buffer (PBS (phosphate buffered saline), 1% BSA (bovine serum albumin), and 0.1% sodium azide) for 20 minutes to block non-specific binding. […] Secondary antibody was washed out twice, cells were fixed in 4% formaldehyde/PBS, and samples were analyzed on FACScan flow cytometer (Becton Dickinson, USA).
Mean Fluorescence Intensity (MFI) was calculated for each transfectant and negative parental line with Cell Quest Pro software (Becton Dickinson, USA).

Chain of huCTLA4 (P16410 36-223): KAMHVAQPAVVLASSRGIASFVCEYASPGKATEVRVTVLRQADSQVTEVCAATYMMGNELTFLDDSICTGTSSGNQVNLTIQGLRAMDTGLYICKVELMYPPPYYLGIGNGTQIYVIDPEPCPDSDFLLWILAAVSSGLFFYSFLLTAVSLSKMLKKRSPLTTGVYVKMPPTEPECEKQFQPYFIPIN
Chain of huPD-L1 (Q9NZQ7 19-290): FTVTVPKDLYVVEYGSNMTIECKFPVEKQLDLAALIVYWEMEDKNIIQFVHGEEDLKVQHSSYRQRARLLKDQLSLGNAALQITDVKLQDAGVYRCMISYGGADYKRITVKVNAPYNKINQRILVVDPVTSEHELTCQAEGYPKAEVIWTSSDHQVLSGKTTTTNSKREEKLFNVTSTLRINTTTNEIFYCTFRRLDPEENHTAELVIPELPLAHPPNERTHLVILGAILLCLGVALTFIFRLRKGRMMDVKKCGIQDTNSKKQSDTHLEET

PD-L1-Dependent CD28 Costimulation, +PD-L1, 0.6 nM (CD28 [1]; CHO/OKT3/PD-L1 aAPC, 0.6 nM) | PD-L1-Dependent CD28 Costimulation, +PD-L1, 50 nM (CD28 [1]; CHO/OKT3/PD-L1 aAPC, 50 nM) | PD-L1-Dependent CD28 Costimulation, No PD-L1, 50 nM (CD28 [1]; CHO/OKT3 aAPC, no PD-L1, 50 nM) | PD-L1-Dependent CD28 Costimulation, No PD-L1, […] (CD28 [1]; CHO/OKT3 aAPC, no PD-L1, […]) | CD28 costimulation, Combination of FcR and/or PD-L1 Dependent Cross-Linking, 0.6 nM (CD28 [2]; K562/0KT3/PD-L1 aAPC, 0.6 nM) | CD28 costimulation, Combination of FcR and/or PD-L1 Dependent Cross-Linking, 50 nM (CD28 [2]; K562/0KT3/PD-L1 aAPC, 50 nM) | CD28 costimulation, FcR Dependent Cross-Linking (No PD-L1), 0.6 nM (CD28 [2]; K562/0KT3 aAPC, 0.6 nM) | CD28 costimulation, FcR Dependent Cross-Linking (No PD-L1), 50 nM (CD28 [2]; K562/0KT3 aAPC, 50 nM) | CD28 costimulation, FcR Dependent Cross-Linking (No PD-L1), […] (CD28 [2]; K562/0KT3 aAPC, […]) | CTLA4 MFI at 66.6 nM (huCTLA4) | CD28 MFI at 66.6 nM (CD28 [3]) | Binding PD-L1 MFI (huPD-L1) | Substance | MLR IFN-gamma levels (allogeneic CD4+ T cells) [pg/mL] | Coimmobilization with anti CD3 IFN-gamma (human pan T cells) [pg/mL]
501 | 440 | 395 | 419 | 689 | 679 | 1404 | 1373 | 1390 | 5962 | 2592 |  | Fc only: negative control Fc alone [reference compound] |  | 
 |  |  |  |  |  |  |  |  |  |  | 70 | WT CD80 | 866 | 83
